Experimental data published in IntAct's records for PubMed 17277084.

B1: Serine/threonine-protein kinase PBS1 (Arabidopsis thaliana (Mouse-ear cress)), Q9FE20 (parent)
chain: MGCFSCFDSSDDEKLNPVDESNHGQKKQSQPTVSNNISGLPSGGEKLSSKTNGGSKRELLLPRDGLGQIAAHTFAFRELAAATMNFHPDTFLGEGGFGRVYKGRLDSTGQVVAVKQLDRNGLQGNREFLVEVLMLSLLHHPNLVNLIGYCADGDQRLLVYEFMPLGSLEDHLHDLPPDKEALDWNMRMKIAAGAAKGLEFLHDKANPPVIYRDFKSSNILLDEGFHPKLSDFGLAKLGPTGDKSHVSTRVMGTYGYCAPEYAMTGQLTVKSDVYSFGVVFLELITGRKAIDSEMPHGEQNLVAWARPLFNDRRKFIKLADPRLKGRFPTRALYQALAVASMCIQEQAATRPLIADVVTALSYLANQAYDPSKDDSRRNRDERGARLITRNDDGGGSGSKFDLEGSEKEDSPRETARILNRDINRERAVAEAKMWGESLREKRRQSEQGTSESNSTG
partner: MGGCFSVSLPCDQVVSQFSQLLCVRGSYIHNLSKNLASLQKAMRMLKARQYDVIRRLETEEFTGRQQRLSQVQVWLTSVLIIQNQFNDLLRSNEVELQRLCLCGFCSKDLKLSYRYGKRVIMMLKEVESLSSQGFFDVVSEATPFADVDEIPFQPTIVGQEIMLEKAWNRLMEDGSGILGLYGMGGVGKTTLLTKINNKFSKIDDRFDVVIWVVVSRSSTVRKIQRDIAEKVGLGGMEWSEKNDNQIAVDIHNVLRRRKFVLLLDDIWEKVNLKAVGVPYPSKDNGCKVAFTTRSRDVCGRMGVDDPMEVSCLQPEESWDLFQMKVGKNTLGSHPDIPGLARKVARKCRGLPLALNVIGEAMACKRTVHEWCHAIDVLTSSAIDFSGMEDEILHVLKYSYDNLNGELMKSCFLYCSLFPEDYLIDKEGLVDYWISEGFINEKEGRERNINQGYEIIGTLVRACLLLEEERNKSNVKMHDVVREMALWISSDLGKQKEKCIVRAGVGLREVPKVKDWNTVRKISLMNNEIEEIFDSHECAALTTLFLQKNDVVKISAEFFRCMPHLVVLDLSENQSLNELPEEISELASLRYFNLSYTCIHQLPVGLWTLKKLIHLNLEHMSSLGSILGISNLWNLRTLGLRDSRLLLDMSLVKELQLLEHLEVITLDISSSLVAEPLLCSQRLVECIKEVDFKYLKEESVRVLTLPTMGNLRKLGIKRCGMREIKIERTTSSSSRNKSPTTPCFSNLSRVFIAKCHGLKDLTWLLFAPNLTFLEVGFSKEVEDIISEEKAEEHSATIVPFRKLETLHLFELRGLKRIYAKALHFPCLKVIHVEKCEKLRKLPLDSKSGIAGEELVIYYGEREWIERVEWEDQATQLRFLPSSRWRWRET

Variants of: B1
Conditions: with rps5_arath RPS5, O64973

effect of a mutation on the interaction | Variant
disrupting interaction strength | MGCFSCFDSSDDEKLNPVDESNHGQKKQSQPTVSNNISGLPSGGEKLSSKTNGGSKRELLLPRDGLGQIAAHTFAFRELAAATMNFHPDTFLGEGGFGRVYKGRLDSTGQVVAVNQLDRNGLQGNREFLVEVLMLSLLHHPNLVNLIGYCADGDQRLLVYEFMPLGSLEDHLHDLPPDKEALDWNMRMKIAAGAAKGLEFLHDKANPPVIYRDFKSSNILLDEGFHPKLSDFGLAKLGPTGDKSHVSTRVMGTYGYCAPEYAMTGQLTVKSDVYSFGVVFLELITGRKAIDSEMPHGEQNLVAWARPLFNDRRKFIKLADPRLKGRFPTRALYQALAVASMCIQEQAATRPLIADVVTALSYLANQAYDPSKDDSRRNRDERGARLITRNDDGGGSGSKFDLEGSEKEDSPRETARILNRDINRERAVAEAKMWGESLREKRRQSEQGTSESNSTG [K115N]
disrupting interaction strength | MGCFSCFDSSDDEKLNPVDESNHGQKKQSQPTVSNNISGLPSGGEKLSSKTNGGSKRELLLPRDGLGQIAAHTFAFRELAAATMNFHPDTFLGEGGFGRVYKGRLDSTGQVVAVKQLDRNGLQGNREFLVEVLMLSLLHHPNLVNLIGYCADGDQRLLVYEFMPLGSLEDHLHDLPPDKEALDWNMRMKIAAGAAKGLEFLHDKANPPVIYRDFKSSNILLDEGFHPKLSDFGLAKLGPTGDKSHVSTRVMRTYGYCAPEYAMTGQLTVKSDVYSFGVVFLELITGRKAIDSEMPHGEQNLVAWARPLFNDRRKFIKLADPRLKGRFPTRALYQALAVASMCIQEQAATRPLIADVVTALSYLANQAYDPSKDDSRRNRDERGARLITRNDDGGGSGSKFDLEGSEKEDSPRETARILNRDINRERAVAEAKMWGESLREKRRQSEQGTSESNSTG [G252R]
